Biological target: the molecule itself
Experiment: native gel or EMSA

Row | Protein | stoichiometry N
1 | amino terminus-truncated recombinant human aromatase, wild type (enzyme) MAKKTSSKGRNYEGTSSIPGPGYCMGIGPLISHGRFLWMGIGSACNYYNRVYGEFMRVWISGEETLIISKSSSMFHIMKHNHYSSRFGSKLGLQCIGMHEKGIIFNNNPELWKTTRPFFMKALSGPGLVRMVTVCAESLKTHLDRLEEVTNESGYVDVLTLLRRVMLDTSNTLFLRIPLDESAIVVKIQGYFDAWQALLIKPDIFFKISWLYKKYEKSVKDLKDAIEVLIAEKRRRISTEEKLEECMDFATELILAEKRGDLTRENVNQCILEMLIAAPDTMSVSLFFMLFLIAKHPNVEEAIIKEIQTVIGERDIKIDDIQKLKVMENFIYESMRYQPVVDLVMRKALEDDVIDGYPVKKGTNIILNIGRMHRLEFFPKPNEFTLENFAKNVPYRYFQPFGFGPRGCAGKYIAMVMMKAILVTLLRRFHVKTLQGQCVESIQKIHDLSLHPDETKNMLEMIFTPRNSDRCLEH | 5
2 | rArom E181K (enzyme, human) MAKKTSSKGRNYEGTSSIPGPGYCMGIGPLISHGRFLWMGIGSACNYYNRVYGEFMRVWISGEETLIISKSSSMFHIMKHNHYSSRFGSKLGLQCIGMHEKGIIFNNNPELWKTTRPFFMKALSGPGLVRMVTVCAESLKTHLDRLEEVTNKSGYVDVLTLLRRVMLDTSNTLFLRIPLDESAIVVKIQGYFDAWQALLIKPDIFFKISWLYKKYEKSVKDLKDAIEVLIAEKRRRISTEEKLEECMDFATELILAEKRGDLTRENVNQCILEMLIAAPDTMSVSLFFMLFLIAKHPNVEEAIIKEIQTVIGERDIKIDDIQKLKVMENFIYESMRYQPVVDLVMRKALEDDVIDGYPVKKGTNIILNIGRMHRLEFFPKPNEFTLENFAKNVPYRYFQPFGFGPRGCAGKYIAMVMMKAILVTLLRRFHVKTLQGQCVESIQKIHDLSLHPDETKNMLEMIFTPRNSDRCLEH | 2
3 | rArom E181A (enzyme, human) MAKKTSSKGRNYEGTSSIPGPGYCMGIGPLISHGRFLWMGIGSACNYYNRVYGEFMRVWISGEETLIISKSSSMFHIMKHNHYSSRFGSKLGLQCIGMHEKGIIFNNNPELWKTTRPFFMKALSGPGLVRMVTVCAESLKTHLDRLEEVTNASGYVDVLTLLRRVMLDTSNTLFLRIPLDESAIVVKIQGYFDAWQALLIKPDIFFKISWLYKKYEKSVKDLKDAIEVLIAEKRRRISTEEKLEECMDFATELILAEKRGDLTRENVNQCILEMLIAAPDTMSVSLFFMLFLIAKHPNVEEAIIKEIQTVIGERDIKIDDIQKLKVMENFIYESMRYQPVVDLVMRKALEDDVIDGYPVKKGTNIILNIGRMHRLEFFPKPNEFTLENFAKNVPYRYFQPFGFGPRGCAGKYIAMVMMKAILVTLLRRFHVKTLQGQCVESIQKIHDLSLHPDETKNMLEMIFTPRNSDRCLEH | 2

Source: article PMC3799952 (Biochemistry, 2013)
